Data published in patent US20150307627A1 (BAC IP B V, published 2015).

Legend:
HuIgG1 = biological target: T1, HuIgG1 (human, UniProt P01857-1 1-330 = IgG part); test: SPR, VHH immobilised, 1:1 Langmuir fit
T1 construct: Purified human IgG of subclass 1; also called Human-IgG1
Method: (§1) Binding affinity constants of anti IgG-Fc VHH fragments were determined using surface plasmon resonance analysis (SPR) on a BiaCore 3000. For this purpose, purified VHH fragments were immobilised onto the surface of a CM5 sensor chip and subsequently incubated with different concentrations of purified IgG antibodies in HBS-EP buffer. Binding was allowed for 3 minutes at 30 μl/min followed by a dissociation step of 15 minutes at 30 μl/min Binding curves were fitted according to a 1:1 Langmuir binding model using Biacore software.

HuIgG2 = biological target: T2, HuIgG2 (human, UniProt P01859-1 1-326 = IgG part); test: SPR, VHH immobilised, 1:1 Langmuir fit
T2 construct: Purified human IgG of subclass 2; also called Human-IgG2
T2 sequence (P01859 other isoform, or with tags, fused parts or gaps): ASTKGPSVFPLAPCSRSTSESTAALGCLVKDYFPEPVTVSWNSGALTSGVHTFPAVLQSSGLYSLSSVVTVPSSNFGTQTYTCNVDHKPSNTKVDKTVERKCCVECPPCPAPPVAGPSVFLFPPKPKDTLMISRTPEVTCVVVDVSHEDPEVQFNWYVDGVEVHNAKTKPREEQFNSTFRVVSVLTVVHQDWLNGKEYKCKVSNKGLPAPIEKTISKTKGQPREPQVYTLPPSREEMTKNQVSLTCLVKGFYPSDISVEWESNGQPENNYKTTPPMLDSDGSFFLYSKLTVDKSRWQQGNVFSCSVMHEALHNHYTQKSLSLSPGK
Method: as §1

HuIgG4 = biological target: T3, HuIgG4 (human, UniProt P01861-1 1-327 = IgG part); test: SPR, VHH immobilised, 1:1 Langmuir fit
T3 construct: Purified human IgG of subclass 4; also called Human-IgG4
T3 sequence (P01861 other isoform, or with tags, fused parts or gaps): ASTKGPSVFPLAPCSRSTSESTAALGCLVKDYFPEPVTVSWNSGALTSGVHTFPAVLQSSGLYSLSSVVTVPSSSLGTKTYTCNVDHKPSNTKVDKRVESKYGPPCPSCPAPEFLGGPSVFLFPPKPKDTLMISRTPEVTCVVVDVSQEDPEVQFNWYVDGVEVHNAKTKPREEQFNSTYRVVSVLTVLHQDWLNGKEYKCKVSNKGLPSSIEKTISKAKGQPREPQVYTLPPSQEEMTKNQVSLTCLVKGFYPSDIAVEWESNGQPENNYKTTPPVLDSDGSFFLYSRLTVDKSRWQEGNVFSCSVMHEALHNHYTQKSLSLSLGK
Method: as §1

Human IgG [1] = biological target: T4, Human IgG; test: SPR, VHH immobilised, 1:1 Langmuir fit
T4 construct: also called HuIgG; human IgG-Fc domains
Method: as §1

HuIgG3 = biological target: T5, HuIgG3 (human, UniProt P01860-1 1-377); test: SPR, VHH immobilised, 1:1 Langmuir fit
T5 construct: Purified human IgG of subclass 3; also called Human-IgG3
T5 sequence (P01860 other isoform, or with tags, fused parts or gaps): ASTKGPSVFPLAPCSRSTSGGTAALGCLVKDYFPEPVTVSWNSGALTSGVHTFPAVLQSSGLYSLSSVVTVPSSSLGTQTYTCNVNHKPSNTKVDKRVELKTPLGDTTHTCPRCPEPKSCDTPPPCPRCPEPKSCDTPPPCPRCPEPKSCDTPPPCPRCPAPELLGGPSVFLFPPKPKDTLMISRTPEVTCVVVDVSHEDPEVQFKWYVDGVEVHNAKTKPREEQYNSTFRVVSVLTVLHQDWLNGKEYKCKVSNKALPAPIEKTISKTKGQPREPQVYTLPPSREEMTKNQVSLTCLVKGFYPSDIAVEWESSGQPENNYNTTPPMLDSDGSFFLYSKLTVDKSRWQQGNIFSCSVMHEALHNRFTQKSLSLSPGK
Method: as §1

Human IgG [2] = biological target: T4, Human IgG; test: affinity chromatography, VHH on NHS-Sepharose, 150 cm/h
Method: The dynamic binding capacity (DBC) of the IgG-Fc domain binding VHH fragments immobilized onto NHS sepharose was tested. 10 ml of 1.0 mg/ml human IgG in PBS pH 7.4 was loaded on a 400 μl column with a linear flow of 150 cm/h. After the washing with 10 column volumes PBS pH 7.4, the column was eluted with 0.1 M glycine buffer pH 3.0. Based on integration of the OD280 signal of the flow through and elution peak, the dynamic binding capacity of the column was calculated (Table 11).

Human IgG [3] = biological target: T4, Human IgG; test: method not given
Method: as §1

T1 sequence (P01857 other isoform, or with tags, fused parts or gaps): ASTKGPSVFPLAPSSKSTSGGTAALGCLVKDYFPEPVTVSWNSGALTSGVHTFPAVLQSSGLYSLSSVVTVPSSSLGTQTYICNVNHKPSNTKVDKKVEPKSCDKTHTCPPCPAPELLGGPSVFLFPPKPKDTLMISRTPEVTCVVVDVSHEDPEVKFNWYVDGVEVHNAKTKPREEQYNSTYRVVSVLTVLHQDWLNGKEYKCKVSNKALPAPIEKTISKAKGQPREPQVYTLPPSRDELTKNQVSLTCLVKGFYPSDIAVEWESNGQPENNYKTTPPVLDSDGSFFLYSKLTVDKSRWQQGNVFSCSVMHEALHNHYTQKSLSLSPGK

Ka (HuIgG1) [M⁻¹] | Kd (HuIgG1) [nM] | koff (HuIgG1) [s⁻¹] | kon (HuIgG1) [M⁻¹ s⁻¹] | Ka (HuIgG2) [M⁻¹] | Kd (HuIgG2) [nM] | koff (HuIgG2) [s⁻¹] | kon (HuIgG2) [M⁻¹ s⁻¹] | Ka (HuIgG4) [M⁻¹] | Kd (HuIgG4) [nM] | koff (HuIgG4) [s⁻¹] | kon (HuIgG4) [M⁻¹ s⁻¹] | Ka (Human IgG [1]) [M⁻¹] | Kd (Human IgG [1]) [nM] | koff (Human IgG [1]) [s⁻¹] | kon (Human IgG [1]) [M⁻¹ s⁻¹] | Ka (HuIgG3) [M⁻¹] | Kd (HuIgG3) [nM] | koff (HuIgG3) [s⁻¹] | kon (HuIgG3) [M⁻¹ s⁻¹] | Binder | further results
1.74e+09 | 0.575 | 0.000208 | 361000 | 5.76e+08 | 1.73 | 0.000212 | 122000 | 3.32e+09 | 0.302 | 5.91e-05 | 196000 | 4.67e+08 | 2.14 | 0.000176 | 82400 | 2.09e+07 | 47.8 | 0.000272 | 5690 | IgG-Fc-01 (VHH, also called IgG-Fc-1) VHH: QVQLQESGGGLVQPGGSLRLSCAASGGTSIRIGSINALAWYRQALGNQRELVAAVTEGGSTNYADFVKGRFTISRDNAQNMMYLQMNSLKPEDTAVYYCNADKVLYSRGGYYSVANDLWGQGTQVTVSS | Dynamic binding capacity (Human IgG [2]): 18.2 mg human IgG/ml matrix
3.81e+08 | 2.62 | 0.000654 | 249000 | 1.37e+08 | 7.29 | 0.000889 | 122000 | 8.16e+07 | 12.3 | 0.00123 | 100000 | 3.07e+08 | 3.25 | 0.00129 | 396000 | 1.11e+08 | 8.99 | 0.0014 | 156000 | IgG-Fc-10 (VHH) VHH: QVQLQESGGGLVQAGDSLRISCRASGLTVNDLYMGWFRQAPGKEREFVGRVTPGDNTDYTYYVDSVKGRFTISRDSAKNTVYLQMNSLKLEDTAVYLCAGRRFGSSEWDYWGQGTQVTVSS | Ka (Human IgG [3]): ≥ 4e+09 M⁻¹; Dynamic binding capacity (Human IgG [2]): 16.7 mg human IgG/ml matrix
